The source of these data is patent US8734776B2 (ZymoGenetics, Inc., priority 2003, dated 2014).

One data set has as its system adenoviral vector, AdGFP. The experiment in a line: Adenoviral (AdGFP) liver pathology in mice. It counts as in vivo, mouse. Particulars: C57Bl/6 mice. On the procedure: When injected intravenously, these viruses primarily target the liver for gene expression. The adenoviruses are replication deficient, but cause liver damage due to inflammatory cell infiltrate that can be monitored by measurement of serum levels of liver enzymes like AST and ALT, or by direct examination of liver pathology.
C57B116 mice were given once daily intraperitoneal injections of 50 μg mouse IL-28 (zcyto24 as shown in SEQ ID NO:8) or metIL-29C172S—PEG for 3 days. Control animals were injected with PBS. One hour following the 3rd dose, mice were given a single bolus intravenous tail vein injection of the adenoviral vector, AdGFP (1×10^9 plaque-forming units (pfu)). Following this, every other day mice were given an additional dose of PBS, mouse IL-28 or metIL-29C172S—PEG for 4 more doses (total of 7 doses). One hour following the final dose of PBS, mouse IL-28 or metIL-29C172S—PEG mice were terminally bleed and sacrificed. The serum and liver tissue were analyzed. Serum was analyzed for AST and ALT liver enzymes. Liver was isolated and analyzed for GFP expression and histology. For histology, liver specimens were fixed in formalin and then embedded in paraffin followed by H&E staining. Sections of liver that had been blinded to treat were examined with a light microscope. Changes were noted and scored on a scale designed to measure liver pathology and inflammation.

Another data set deals with Mouse B cells. The experiment in a line: Mouse B cell 3H-thymidine incorporation. The data set is classed as cell-based. The protocol: Mouse B cells were isolated from 2 Balb/C spleens (7 months old) by depleting CD43+ cells using MACS magnetic beads. Purified B cells were cultured in vitro with LPS, anti-IgM or anti-CD40 monoclonal antibodies. Mouse IL-28 or mouse IFNα was added to the cultures and ^3H-thymidine was added at 48 hrs. and ^3H-thymidine incorporation was measured after 72 hrs. culture.

The subject of another data set is AML-12 cells. The experiment in a line: ISG induction in mouse liver cell line AML-12 (real-time PCR). It counts as cell-based. Particulars: 20 ng/ml, 48 hour time point.
In data set [1] the test system is ISRE signaling in HepG2 cells. Particulars: 100 ng/ml; 4-hour.
Data set [2] concerns encephelomyocarditis virus. The experiment in a line: Antiviral assay: cytopathic effect in HeLa cells. The data set is classed as cell-based, human.
Data set [3] deals with encephelomyocarditis virus. In words: Antiviral assay: cytopathic effect in L929 cells. It counts as cell-based, mouse.

B1: zcyto24: mouse IL-28, SEQ ID NO:8 (protein, listed as Mus musculus)
chain: MKPETAGGHMLLLLLPLLLAAVLTRTQADPVPRATRLPVEAKDCHIAQFKSLSPKELQAFKKAKDAIEKRLLEKDLRCSSHLFPRAWDLKQLQVQERPKALQAEVALTLKVWENMTDSALATILGQPLHTLSHIHSQLQTCTQLQATAEPRSPSRRLSRWLHRLQEAQSKETPGCLEASVTSNLFRLLTRDLKCVANGDQCV
modifications: SIGNAL (1)...(28)
Regarding B1, in the data set with adenoviral vector, AdGFP, the “liver histology: liver and inflammation scores versus PBS-treated group” value is “lower liver and inflammation scores”. In addition, in the data set with adenoviral vector, AdGFP (50 μg i.p., 7 doses, n=8), the “average serum AST” value amounted to 193 U/L. The relative liver fluorescence in the data set with adenoviral vector, AdGFP (50 μg i.p., 7 doses, n=8) is 34.5 arbitrary units. The “serum ALT” value with adenoviral vector, AdGFP (50 μg i.p., 7 doses, n=8) was 216 U/L. The “3H-thymidine incorporation by mouse B cells” value in the data set with Mouse B cells (stimulated with LPS or anti-IgM, IFNα 10 ng/ml, mouse IL-28 any concentration including 1000 ng/ml) is reported as “did not inhibit”. The “3H thymidine incorporation by mouse B cells” value in the data set on Mouse B cells (stimulated with anti-CD40 MAb) is listed as “increased”. Also, the “Mx1 expression relative to HPRT” value in the data set on AML-12 cells was 0.08. The “OAS expression relative to HPRT” value with AML-12 cells worked out at 0.04. Also, the “PkR expression relative to HPRT” value with AML-12 cells was 0.02. The “Fold Induction of Cytokine-dependent ISRE Signaling in HepG2 Cells” value in data set [1] is reported as 4.7 fold. The “Percentage Cytopathic Effect” value in data set [2] (relative CM concentration .008X), in data set [2] (relative CM concentration .0156X), in data set [2] (relative CM concentration .0325X), in data set [2] (relative CM concentration .0625X), in data set [2] (relative CM concentration .125X) and in data set [2] (relative CM concentration .25X) was 0% each time. Further, the “Percentage Cytopathic Effect” value is recorded as 0% in data set [2] (relative CM concentration .5X); 87% in data set [3] (relative CM conc. .008X); 87% in data set [3] (relative CM conc. .0156X); 87% in data set [3] (relative CM conc. .0325X); 87% in data set [3] (relative CM conc. .0625X); 87% in data set [3] (relative CM conc. .125X). In addition, the “Percentage Cytopathic Effect” value in data set [3] (relative CM conc. .25X) and in data set [3] (relative CM conc. .5X) was 87% throughout.
